Positions count from the first letter of the chain named. In names and notes the source's numbering stands.
Biological target: T1, Cre^Cat (interdomain linker and C-terminal catalytic domain of Cre recombinase, residues 127-343) (UniProt P06956 127-343)
T1 sequence (looked up): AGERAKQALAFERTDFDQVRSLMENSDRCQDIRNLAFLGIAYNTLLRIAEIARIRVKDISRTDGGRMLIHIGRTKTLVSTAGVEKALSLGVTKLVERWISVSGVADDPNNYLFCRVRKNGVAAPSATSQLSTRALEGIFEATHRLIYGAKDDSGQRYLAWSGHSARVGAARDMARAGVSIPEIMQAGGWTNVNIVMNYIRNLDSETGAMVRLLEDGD
Assay: intermolecular PRE-NMR

binding result: binds
B1: MTSL tagged-Cre^Cat C155A/C240A/D343C (domain or fragment, UniProt P06956 127-343, looked up)
chain: T1 sequence (looked up) with C29A, C114A, D217C
modifications: MTSL paramagnetic spin probe on C-terminal residue C343
